{"source": "patent US12673985B2", "about": "“Method for the treatment or prophylaxis of cancer by targeting the extracellular portion of keratin 14 (KRT14) residing on cancer cells” (Hudson Institute of Medical Research, priority 2019, dated 2026)", "molecules": {"B1": {"name": "mAb AN-17: monoclonal anti-KRT14 antibody; heavy chain variable region SEQ ID NO:3, light chain variable region SEQ ID NO:5 (clone AN-17A RG4.E5b.A7.B4) (antibody, listed as Mus musculus, V domains shown)", "VH": "QVQLKESGPGLVAPSQSLSITCTVSGFSLSRYSVHWVRQPPGKGLEWLGMIWGGGSTDYNSALKSRLSISKDNSKSQVFLKMNSLQTDDTAMYYCARKDYGYSYFDYWGQGTTLTVSS", "VL": "DVLMTQTPLSLPVSLGDQASISCRSSQSIVHSNGNTYLEWYLQKPGQSPKLLIYKVSNRFSGVPDRFSGSGSGTDFTLKISRVEAEDLGVYYCFQGSHVPFTFGSGTKLEIKRADAAPTVS"}}, "key": {"[1]": {"assay": "Assessment of mAb AN-17 toxicity, single intraperitoneal dose", "format": "in vivo, mice", "protocol": "Doses of 0.5, 1.0. 2.5, 5.0 and 10 mg/kg were assessed. After 7 days mice were culled, and examined post mortem for any evidence of toxicity (macroscopic tissue appearance, presence of inflammation, or any obvious lesions)."}, "[2]": {"test_system": "SW620 colorectal carcinoma", "assay": "In vitro wound repair assay", "format": "cell-based", "details": "antibody 1 μg/ml; 16 hours", "protocol": "(§1) In vitro wound repair assay. Ovarian cancer cells (or other cancer cell lines—BT16, NCI-H1573, AN3CA, SW620 and MDA-MB-468) were grown in complete medium to confluency in a 12-well plate, then serum-starved overnight to synchronize at G0. The following day cell culture medium was removed, and cell monolayers were wounded by scraping with a pipette tip attached to suction. Non-adherent cells were removed by gentle washes with PBS, and complete growth medium with or without mAb AN-17 (1 μg/ml) or commercial KRT14 polyclonal antibody (1 μg/ml) was replaced. The wound area was imaged under a phase microscope (Leica) at regular intervals ranging from 0-72 h. Wound closure was measured in image series using AnalySIS LS Research Software (Olympus) to determine the area of the wound on each day. Experiments were repeated in triplicate with at least six wound areas observed per growth condition.\n(§2) In vitro wound repair assays were conducted using AN3CA endometrial carcinoma and SW620 colorectal carcinoma lines. Cells were grown in complete medium to confluency in a 12-well plate, then serum-starved overnight to synchronize at G0. The following day cell culture medium was removed, and cell monolayers were wounded by scraping with a pipette tip attached to suction. […] Wound closure was measured in image series using AnalySIS LS Research Software (Olympus) to determine the area of the wound on each day. […]"}, "[3]": {"test_system": "AN3CA endometrial carcinoma", "assay": "In vitro wound repair assay", "format": "cell-based", "details": "antibody 1 μg/ml; 16 hours", "protocol": "as §1, §2"}, "[4]": {"molecular_target": "T1, KRT14 (Homo sapiens, UniProt P02533)", "T1 sequence (P02533 1-472)": "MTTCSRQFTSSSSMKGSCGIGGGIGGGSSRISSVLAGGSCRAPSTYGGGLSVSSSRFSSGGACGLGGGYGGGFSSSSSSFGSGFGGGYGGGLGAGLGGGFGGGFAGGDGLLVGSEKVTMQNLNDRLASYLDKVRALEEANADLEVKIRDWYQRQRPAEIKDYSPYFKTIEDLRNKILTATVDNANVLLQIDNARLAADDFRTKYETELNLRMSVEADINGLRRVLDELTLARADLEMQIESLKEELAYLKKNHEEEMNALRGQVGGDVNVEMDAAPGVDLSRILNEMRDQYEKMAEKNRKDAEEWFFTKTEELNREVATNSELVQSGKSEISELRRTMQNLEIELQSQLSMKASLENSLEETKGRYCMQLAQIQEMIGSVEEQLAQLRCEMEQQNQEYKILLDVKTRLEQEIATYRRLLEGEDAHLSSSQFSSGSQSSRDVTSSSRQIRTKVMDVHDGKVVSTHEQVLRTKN", "assay": "Immunofluorescence staining of ovarian cancer cell lines SKOV-3, Ovcar4 and Cov362.3", "format": "cell-based", "design": "endogenous in cells; host or cells: SKOV-3, Ovcar4, Cov362.3", "details": "1 μg/ml", "protocol": "The ovarian cancer cell lines SKOV-3, Ovcar4 and Cov362.3 were seeded onto 96 well black fluortrac imaging plates. Intact or fixed (1% paraformaldehyde; PFA) and permeabilized (0.1% Triton X) cells were stained using mAb AN-17. For fixed cells, samples were blocked in 10% fetal bovine serum (FBS) and then stained with 1 μg/ml mAb AN-17 for one hour at room temperature. Cells were subsequently washed with PBS and stained with the Alexa Fluor®-647 goat anti-mouse secondary at 1:2000 for one hour at room temperature. For intact cells, samples were stained with 1 μg/ml mAb AN-17 conjugated to Alexa-647 in PBS containing 1% FBS for two hours at 37° C., the medium was replaced with fresh PBS/1% FBS and cells were immediately imaged. Samples were imaged using the Cytation 3 multimode reader at 4× magnification."}, "[5]": {"molecular_target": "T2, full-length recombinant KRT14 protein (Homo sapiens, UniProt P02533)", "T2 construct": "A 1 μg aliquot of full-length recombinant KRT14 protein (Abcam #ab73637) was separated by SDS PAGE; purchased Abcam ab73637", "T2 sequence (P02533 1-472)": "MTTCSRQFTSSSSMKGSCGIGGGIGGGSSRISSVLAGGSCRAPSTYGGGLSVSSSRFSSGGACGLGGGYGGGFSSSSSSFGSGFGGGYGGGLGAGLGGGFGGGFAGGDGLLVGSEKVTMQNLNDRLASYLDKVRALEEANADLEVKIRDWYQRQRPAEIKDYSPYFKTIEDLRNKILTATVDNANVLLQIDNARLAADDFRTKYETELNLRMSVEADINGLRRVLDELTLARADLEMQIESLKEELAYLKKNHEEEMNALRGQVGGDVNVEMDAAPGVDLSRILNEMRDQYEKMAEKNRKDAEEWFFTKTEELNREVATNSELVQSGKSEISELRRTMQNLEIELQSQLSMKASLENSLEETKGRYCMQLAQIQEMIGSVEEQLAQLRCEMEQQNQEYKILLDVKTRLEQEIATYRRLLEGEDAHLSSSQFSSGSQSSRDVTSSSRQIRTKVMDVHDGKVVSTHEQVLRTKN", "assay": "Western blotting for KRT14 detection", "format": "binding", "details": "dilutions 1:1000 to 1:10,000; 1 μg protein", "protocol": "Western Blot analyses. SDS-PAGE and western blotting were performed as previously described in Bilandzic et al. (2013) Mol Endocrinol, 2013. 27(3):466-79). Blots were probed using antibodies against KRT14 (1:1000, SAB4501657), mAb AN-17 and β-actin (1:20,000; Sigma-Aldrich, Castle Hill, Australia). Secondary antibodies HRP-conjugated goat anti-mouse, anti-rabbit and donkey anti-goat (1:50,000; Merck Millipore, Kilsyth, Australia) were used Bilandzic et al. (2013) Mol Endocrinol, 2013. 27(3):466-79). Protein bands were detected using Clarity Western ECL blotting substrate (Biorad #1705061) and visualized using a ChemiDoc (Trade Mark) MP System (Bio-Rad, #1708280).\nA 1 μg aliquot of full-length recombinant KRT14 protein (Abcam #ab73637) was separated by SDS PAGE and transferred to PVDF membrane using standard procedures (PMID: 23952987). The membrane was probed with mAb AN-17 at dilutions of 1:1000, 1:5000 and 1:10,000. Secondary antibody was goat anti-mouse HRP conjugate (1:50,000 dilution), with detection of KRT14 using chemiluminescence according to standard protocols (PMID: 23952987; Rainczuk et al., J Proteome Res. 2013; 12(9):4074-88)."}}, "note": "Entries after “also recorded” stand apart in the source; their conditions may differ."}
{"molecule": "B1", "values": [{"measurement": "maximum tolerated dose", "setting": "[1]; doses up to 10 mg/kg i.p.", "value": "not reached"}, {"measurement": "evidence of toxic effects", "setting": "[1]; single i.p. dose 0.5, 1.0, 2.5, 5.0 and 10 mg/kg, up to 7 days and post mortem", "value": "No evidence of toxic effects; also recorded: no toxicity noted at any dose or any time point"}, {"measurement": "wound closure / migration, SW620", "setting": "[2]", "value": "failed to close the wound; also recorded: impaired"}, {"measurement": "wound closure / migration, AN3CA", "setting": "[3]", "value": "failed to close the wound; also recorded: impaired"}, {"measurement": "staining localization", "setting": "[4]; fixed and permeabilized cells", "value": "Specific intracellular cytoplasmic localization"}, {"measurement": "staining localization", "setting": "[4]; intact live cells", "value": "predominant cell surface localization"}, {"measurement": "detection of KRT14 protein by western blotting", "setting": "[5]", "value": "successfully detected KRT14 protein"}]}
